Test results published in publication PMC8932913.

Molecular target: recombinant Hbl B’ of B. cereus strain F837/76 (Bacillus cereus strain F837/76)
Assay: SPR; Biacore S200; rHbl B’ amine-coupled (350 RU) on a CM5 chip; rHbl L1, L2 or B injected at 7.8125 nM to 2 µM, 30 µl/min, 20°C; running buffer PBS, 1 mM DTT, 0.005% Tween 20; 1:1 binding model; three experiments

**Q.** For recombinant Hbl L1 (natural protein), which Kd is on record?
**A.** The Kd was 131 nM.
